Measured values from patent US20140274782A1, “AFFINITY REAGENTS AND METHODS FOR DETECTION, PURIFICATION, AND PROTEOMIC ANALYSIS OF METHYLATED PROTEINS” (The Board of Trustees of the Leland Stanford Junior …, priority 2013, published 2014).
Values joined by “and” are separate entries in the source; they are usually repeats but may differ in a detail not shown here. Identical values can stand only once.

What was measured:
3×MBT domain of L3MBTL1 = assay: Triple SILAC pull-down, 3xMBT/3xMBTD355N ratio (cytoplasmic, nuclear and chromatin fractions of 293T cells); type: binding, human; settings: for 3xMBT/D355N UNC Heavy: experiment with UNC0638 in heavy SILAC media; for 3xMBT/D355N UNC Light: experiment with UNC0638 in light SILAC media;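 on all read-outs here: proteins quantified with MaxQuant, requiring at least two unique peptides and quantification in both label directions, normalized to the mean of proteins from a digested loading control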
G9a and GLP = biological target: T1, G9a and GLP (Homo sapiens, UniProt Q96KQ7+Q9H9B1); assay: Triple SILAC pull-down after UNC0638 treatment of 293T cells, DMSO/UNC0638 ratio of protein captured by 3×MBT; type: cell-based; settings: for Relative to UNC0638 UNC Heavy: UNC0638 in heavy SILAC media; for Relative to UNC0638 UNC Light: UNC0638 in light SILAC media; for Relative to UNC0638 Average: average of UNC Light and UNC Heavy experiments;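 on all read-outs here: mass spectrometry (Q-Exactive) SILAC quantitation, DMSO/UNC0638 ratio computed after subtracting 3×MBTD355N mutant pull-down background, only proteins with at least twofold 3×MBT over mutant signal considered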
T1 construct: endogenous in cells; host or cells: HEK 293T
T1 sequence (Q96KQ7 2-1210 limits assumed): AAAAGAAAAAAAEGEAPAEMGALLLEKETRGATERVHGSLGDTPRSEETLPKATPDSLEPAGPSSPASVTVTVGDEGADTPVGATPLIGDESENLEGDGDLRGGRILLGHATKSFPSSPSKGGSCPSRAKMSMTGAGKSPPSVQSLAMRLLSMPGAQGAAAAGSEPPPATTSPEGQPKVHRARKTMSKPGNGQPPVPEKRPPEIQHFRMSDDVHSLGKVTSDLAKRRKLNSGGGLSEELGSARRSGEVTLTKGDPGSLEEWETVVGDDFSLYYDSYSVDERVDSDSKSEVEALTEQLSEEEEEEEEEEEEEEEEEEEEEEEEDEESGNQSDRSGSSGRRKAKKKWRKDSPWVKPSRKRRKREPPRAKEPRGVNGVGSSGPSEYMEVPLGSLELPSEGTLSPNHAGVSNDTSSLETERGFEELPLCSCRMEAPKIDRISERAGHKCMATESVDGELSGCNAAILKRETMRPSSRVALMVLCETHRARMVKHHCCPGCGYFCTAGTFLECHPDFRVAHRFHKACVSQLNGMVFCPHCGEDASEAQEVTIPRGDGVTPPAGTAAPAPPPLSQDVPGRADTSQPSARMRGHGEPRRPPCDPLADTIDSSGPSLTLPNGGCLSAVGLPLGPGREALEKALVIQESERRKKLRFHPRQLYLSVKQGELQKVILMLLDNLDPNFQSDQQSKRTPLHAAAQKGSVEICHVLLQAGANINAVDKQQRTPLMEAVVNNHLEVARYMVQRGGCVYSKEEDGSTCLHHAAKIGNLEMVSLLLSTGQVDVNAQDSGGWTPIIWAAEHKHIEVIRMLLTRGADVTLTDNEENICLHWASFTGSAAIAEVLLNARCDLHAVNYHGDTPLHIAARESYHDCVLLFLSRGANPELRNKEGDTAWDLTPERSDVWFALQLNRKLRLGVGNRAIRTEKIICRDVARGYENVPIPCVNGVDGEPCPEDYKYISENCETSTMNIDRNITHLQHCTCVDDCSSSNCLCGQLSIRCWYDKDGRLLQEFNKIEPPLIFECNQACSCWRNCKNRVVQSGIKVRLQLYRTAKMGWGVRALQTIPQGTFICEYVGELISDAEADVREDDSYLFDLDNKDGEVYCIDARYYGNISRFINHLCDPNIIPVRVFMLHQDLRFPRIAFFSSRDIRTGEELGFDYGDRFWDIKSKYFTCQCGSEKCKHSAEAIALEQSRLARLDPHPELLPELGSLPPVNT
T1 sequence (Q9H9B1 2-1298 limits assumed): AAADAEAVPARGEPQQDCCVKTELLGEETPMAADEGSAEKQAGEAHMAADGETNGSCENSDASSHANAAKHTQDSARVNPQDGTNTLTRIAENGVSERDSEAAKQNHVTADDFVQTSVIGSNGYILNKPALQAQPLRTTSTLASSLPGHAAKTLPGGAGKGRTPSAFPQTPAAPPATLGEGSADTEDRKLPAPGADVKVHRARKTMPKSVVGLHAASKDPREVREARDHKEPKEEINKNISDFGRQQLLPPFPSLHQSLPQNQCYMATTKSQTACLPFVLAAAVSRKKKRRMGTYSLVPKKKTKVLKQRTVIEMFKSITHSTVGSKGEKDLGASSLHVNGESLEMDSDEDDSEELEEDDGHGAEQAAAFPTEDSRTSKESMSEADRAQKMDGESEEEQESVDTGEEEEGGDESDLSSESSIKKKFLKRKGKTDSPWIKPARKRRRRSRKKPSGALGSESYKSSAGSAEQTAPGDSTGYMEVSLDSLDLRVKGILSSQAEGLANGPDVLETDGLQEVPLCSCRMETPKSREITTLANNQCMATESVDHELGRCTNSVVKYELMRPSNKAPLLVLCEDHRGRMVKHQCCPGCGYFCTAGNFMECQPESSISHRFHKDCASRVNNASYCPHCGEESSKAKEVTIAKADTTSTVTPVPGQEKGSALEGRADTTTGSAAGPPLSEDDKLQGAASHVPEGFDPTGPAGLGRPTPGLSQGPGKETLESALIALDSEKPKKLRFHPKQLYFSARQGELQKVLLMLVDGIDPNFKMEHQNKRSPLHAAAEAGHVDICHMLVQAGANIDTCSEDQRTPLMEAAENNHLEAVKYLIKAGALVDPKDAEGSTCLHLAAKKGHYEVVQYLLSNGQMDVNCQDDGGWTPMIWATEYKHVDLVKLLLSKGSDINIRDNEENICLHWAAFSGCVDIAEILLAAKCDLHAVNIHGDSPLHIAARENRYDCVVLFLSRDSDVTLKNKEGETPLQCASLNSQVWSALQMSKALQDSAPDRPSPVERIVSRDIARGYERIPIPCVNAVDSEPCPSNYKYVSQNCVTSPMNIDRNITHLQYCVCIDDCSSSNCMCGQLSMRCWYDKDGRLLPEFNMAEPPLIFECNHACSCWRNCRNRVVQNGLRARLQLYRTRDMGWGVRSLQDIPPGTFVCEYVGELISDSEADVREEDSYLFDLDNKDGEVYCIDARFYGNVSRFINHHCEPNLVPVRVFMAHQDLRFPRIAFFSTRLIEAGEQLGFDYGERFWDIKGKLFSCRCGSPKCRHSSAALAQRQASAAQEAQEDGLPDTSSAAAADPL

[1] = SILAC ratio, pull-down 3xMBT vs 3xMBTD355N
[2] = SILAC ratio DMSO/UNC0638 of protein pulled down with 3xMBT
[3] = SILAC ratio 3xMBT vs 3xMBTD355N pull-down, 293T cells, all values in log base 2
[4] = SILAC ratio DMSO relative to UNC0638, pull-down with 3xMBT, all values in log base 2

Row | Substance | 3xMBT/D355N UNC Heavy (3×MBT domain of L3MBTL1; [1]) | 3xMBT/D355N UNC Light (3×MBT domain of L3MBTL1; [1]) | Relative to UNC0638 UNC Heavy (G9a and GLP; [2]) | Relative to UNC0638 UNC Light (G9a and GLP; [2]) | Relative to UNC0638 Average (G9a and GLP) | 3xMBT/D355N UNC Heavy (3×MBT domain of L3MBTL1; [3]) | 3xMBT/D355N UNC Light (3×MBT domain of L3MBTL1; [3]) | Relative to UNC0638 UNC Heavy (G9a and GLP; [4]) | Relative to UNC0638 UNC Light (G9a and GLP; [4]) | Relative to UNC0638 Average (G9a and GLP; all values in log base 2) | Protein Ratios 3xMBT/D355N (3×MBT domain of L3MBTL1; SILAC ratio, pull-down by 3xMBT vs 3xMBTD355N, 293T cells) | Protein Ratios DMSO/UNC0638 (G9a and GLP; SILAC ratio of protein captured by 3xMBT, 293T cells treated 24 hours with UNC0638 at 2.5 μM or DMSO)
1 | PCBP1 | 2.16 log base 2 | 2.49 log base 2 | 0.11 log base 2 | 0.19 log base 2 | 0.15 log base 2 | – | – | – | – | – | – | –
2 | G6PD [Hit G6PD] | – | – | – | – | – | 0.75 log base 2 | 1.96 log base 2 | −0.20 log base 2 | −0.01 log base 2 | −0.10 log base 2 | – | –
3 | YWHAE | 1.86 log base 2 | 2.52 log base 2 | 0.58 log base 2 | −0.12 log base 2 | 0.23 log base 2 | – | – | – | – | – | – | –
4 | PRPF8 | 2.51 log base 2 | 2.50 log base 2 | 0.11 log base 2 | 0.17 log base 2 | 0.14 log base 2 | – | – | – | – | – | – | –
5 | G3BP1 [Hit G3BP1] | 2.02 log base 2 | 2.72 log base 2 | 0.23 log base 2 | 0.15 log base 2 | 0.19 log base 2 | – | – | – | – | – | – | –
6 | PTBP1 | 2.61 log base 2 | 3.23 log base 2 | 0.33 log base 2 | 0.25 log base 2 | 0.29 log base 2 | – | – | – | – | – | – | –
7 | Clathrin heavy chain 1 | – | – | – | – | – | – | – | – | – | – | 6.0 | 1.4
8 | HNRNPK | 3.13 log base 2 and 2.55 log base 2 | 3.64 log base 2 and 3.36 log base 2 | 0.17 log base 2 and 0.13 log base 2 | 0.10 log base 2 | 0.13 log base 2 and 0.11 log base 2 | – | – | – | – | – | – | –
9 | PABPC1 | 2.91 log base 2 | 3.44 log base 2 | 0.04 log base 2 | 0.26 log base 2 | 0.15 log base 2 | – | – | – | – | – | – | –
10 | EIF4G1 | 3.18 log base 2 | 3.31 log base 2 | 0.07 log base 2 | 0.25 log base 2 | 0.16 log base 2 | – | – | – | – | – | – | –
11 | RDBP | – | – | – | – | – | 2.37 log base 2 | 2.82 log base 2 | 0.32 log base 2 | −0.12 log base 2 | 0.10 log base 2 | – | –
12 | NUDT21 | 3.65 log base 2 | 3.15 log base 2 | 0.20 log base 2 | 0.04 log base 2 | 0.12 log base 2 | – | – | – | – | – | – | –
13 | TUBB | 1.16 log base 2 | 1.42 log base 2 | 0.31 log base 2 | 0.14 log base 2 | 0.22 log base 2 | – | – | – | – | – | – | –
14 | HIST1H1C | 5.16 log base 2 | 4.61 log base 2 | 0.18 log base 2 | 0.15 log base 2 | 0.17 log base 2 | – | – | – | – | – | – | –
15 | CKAP5 | 2.10 log base 2 | 1.30 log base 2 | 0.24 log base 2 | 0.06 log base 2 | 0.15 log base 2 | – | – | – | – | – | – | –
16 | RAD50 | – | – | – | – | – | 2.20 log base 2 | 2.08 log base 2 | 0.15 log base 2 | −0.14 log base 2 | 0.01 log base 2 | – | –
17 | ANXA2 | – | – | – | – | – | 2.86 log base 2 | 2.78 log base 2 | 0.38 log base 2 | −0.31 log base 2 | 0.04 log base 2 | – | –
18 | CFL1 | 2.43 log base 2 | 3.06 log base 2 | 0.19 log base 2 | 0.07 log base 2 | 0.13 log base 2 | – | – | – | – | – | – | –
